The source of these data is paper PMC9352680, “A comprehensive thermodynamic model for RNA binding by the Saccharomyces cerevisiae Pumilio protein PUF4”.

The series has as its target T1, PUF4 RNA-binding domain (Saccharomyces cerevisiae, UniProt P25339 537-888).
T1 sequence: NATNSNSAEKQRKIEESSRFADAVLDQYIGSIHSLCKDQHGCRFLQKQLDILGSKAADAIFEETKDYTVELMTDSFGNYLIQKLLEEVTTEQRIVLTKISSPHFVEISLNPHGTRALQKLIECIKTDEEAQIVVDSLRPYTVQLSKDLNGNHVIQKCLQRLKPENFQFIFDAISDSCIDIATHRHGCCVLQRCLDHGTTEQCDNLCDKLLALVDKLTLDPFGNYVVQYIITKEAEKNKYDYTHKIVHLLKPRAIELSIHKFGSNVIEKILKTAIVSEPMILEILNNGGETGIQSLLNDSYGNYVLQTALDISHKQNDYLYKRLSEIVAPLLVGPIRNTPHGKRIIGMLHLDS
Description: Mg; RNA-MaP; 20 mM Na-HEPES pH 7.4, 30 mM KOAc, 0.75 mM MgCl2, 0.1% Tween-20, 5% glycerol, 0.1 mg/mL BSA, 2 mM DTT; 25 C; 0.0125-409.6 nM protein. As to conditions: tags: N-His6-TEV cleaved; C-SNAP kept, Cy3B-labelled; label: tethered on chip by stalled RNA polymerase.

Where a chain is given by its changes, count along the chain named. Numbers in names are those of the source.

As for UCUCUUUAUAUAUUCUCUCUU (ssRNA) [Ib_S1_P4E.1_K4.1_C4.1_H4.1_[G2A]_A4.1_F4.1_[A9C]_T4.1], the affinity, expressed as Kd, was 857 nM.

B1: Ic_S4_P3E.1_K3.1_C3.1_H3.1_A3.1_[T5G]_[A6C]_F3.1_[T7G]_[A8G]_T3.1 (ssRNA)
RNA: UUUGACAACUGAUCGUUCUUUCUUGUAGCGGUUCUUUCUCGAUCAGUUGUCUUU
In the case of B1, binding was put at a Kd of 1270 nM.

B2: Ic_S4_P3E.1_K3.1_C3.1_H3.1_A3.1_[T5G]_[A6C]_F3.1_[T7C]_T3.1 (ssRNA)
RNA: B1 RNA with G30C, G31A
B2: the Kd (as a rule, the constant that tells how readily two partners part at equilibrium) worked out at 616 nM.

B3: Ic_S4_P3E.1_K3.1_C3.1_H3.1_A3.1_[T5G]_[A6C]_F3.1_[T7A]_[A8G]_T3.1 (ssRNA)
RNA: B1 RNA with G30A
As for B3, the Kd was 836 nM.

B4: Ic_S4_P3E.1_K3.1_C3.1_H3.1_A3.1_[T5G]_[A6C]_F3.1_[T7G]_[A8C]_T3.1 (ssRNA)
RNA: B1 RNA with G31C
In turn, B4 displayed a Kd of 1710 nM. Compared with the last molecule, the Kd is about 2-fold higher.

B5: Ic_S4_P3E.1_K3.1_C3.1_H3.1_A3.1_[T5G]_[A6C]_F3.1_[T7C]_[A8C]_T3.1 (ssRNA)
RNA: B1 RNA with G30C, G31C
Regarding B5, binding was put at a Kd of 648 nM.

B6: Ic_S4_P3E.1_K3.1_C3.1_H3.1_A3.1_[T5G]_[A6C]_F3.1_[T7A]_[A8C]_T3.1 (ssRNA)
RNA: B1 RNA with G30A, G31C
Consider B6, for which the Kd amounted to 243 nM.

B7: Ic_S2_P5E.1_K5.1_C5.1_H5.1_A5.1_[T5A]_[T6C]_[A7C]_F5.1_[T8G]_T5.1 (ssRNA)
RNA: UUUGAUUAAUAUGAUAUCGUUCUUUCUUGUAACCGUAUUCUUUCUCGAUAUCAUAUUAAUCUUU
Molecule B7 came in with a Kd of 12.9 nM.

B8: Ic_S2_P5E.1_K5.1_C5.1_H5.1_A5.1_[T5A]_[T6A]_F5.1_[T9C]_[A10T]_T5.1 (ssRNA)
RNA: B7 RNA with C33A, C34A, G35U, U36C, A37U
Turning to B8, the Kd was 81.5 nM.

B9: Ic_S2_P5E.1_K5.1_C5.1_H5.1_A5.1_[T5G]_F5.1_[T8A]_[A10T]_T5.1 (ssRNA)
RNA: B7 RNA with A32G, C33U, C34A, G35A, A37U
B9 had a Kd of 342 nM.

B10: Ic_S2_P5E.1_K5.1_C5.1_H5.1_A5.1_[T5G]_[A7T]_F5.1_[T8C]_[A10T]_T5.1 (ssRNA)
RNA: B7 RNA with A32G, C33U, C34U, G35C, A37U
For B10, the Kd turned out to be 126 nM.

B11: Ic_S2_P5E.1_K5.1_C5.1_H5.1_A5.1_[T5C]_[A7C]_F5.1_[T8C]_[T9C]_[A10T]_T5.1 (ssRNA)
RNA: B7 RNA with A32C, C33U, G35C, U36C, A37U
For B11, the Kd was 104 nM.

B12: Ic_S2_P5E.1_K5.1_C5.1_H5.1_A5.1_[T5G]_[A7T]_F5.1_[T9A]_[A10T]_T5.1 (ssRNA)
RNA: B7 RNA with A32G, C33U, C34U, G35U, U36A, A37U
The molecule B12 yielded a Kd of 1.93 nM.

B13: Ic_S2_P5E.1_K5.1_C5.1_H5.1_A5.1_[T6A]_[A7T]_F5.1_[T8A]_[T9C]_[A10G]_T5.1 (ssRNA)
RNA: B7 RNA with A32U, C33A, C34U, G35A, U36C, A37G
For the molecule B13, binding was put at a Kd of 8.49 nM.

B14: Ic_S2_P5E.1_K5.1_C5.1_H5.1_A5.1_[T5C]_[T6G]_[A7C]_F5.1_[T8C]_[T9C]_T5.1 (ssRNA)
RNA: B7 RNA with A32C, C33G, G35C, U36C
Regarding B14, the affinity, expressed as Kd, was 558 nM.

B15: Ic_S2_P5E.1_K5.1_C5.1_H5.1_A5.1_[T5C]_[T6G]_[A7T]_F5.1_[T8C]_[A10G]_T5.1 (ssRNA)
RNA: B7 RNA with A32C, C33G, C34U, G35C, A37G
For the molecule B15, the Kd was 1250 nM. Against the preceding molecule, the Kd is about 2.2-fold higher.

B16: Ic_S2_P5E.1_K5.1_C5.1_H5.1_A5.1_[T6A]_[A7C]_F5.1_[T8C]_[T9G]_[A10G]_T5.1 (ssRNA)
RNA: B7 RNA with A32U, C33A, G35C, U36G, A37G
As for B16, the Kd amounted to 82 nM.

B17: Ic_S2_P5E.1_K5.1_C5.1_H5.1_A5.1_[T6A]_[A7T]_F5.1_[T8C]_[T9C]_[A10T]_T5.1 (ssRNA)
RNA: B7 RNA with A32U, C33A, C34U, G35C, U36C, A37U
B17 had a Kd of 10.3 nM.

B18: Ic_S2_P5E.1_K5.1_C5.1_H5.1_A5.1_[T6C]_F5.1_[T8G]_[A10C]_T5.1 (ssRNA)
RNA: B7 RNA with A32U, C34A, A37C
B18 returned a Kd of 218 nM.

B19: Ic_S2_P5E.1_K5.1_C5.1_H5.1_A5.1_[T5A]_F5.1_[T8C]_[T9G]_[A10C]_T5.1 (ssRNA)
RNA: B7 RNA with C33U, C34A, G35C, U36G, A37C
The molecule B19 returned a Kd of 1050 nM. Against the preceding molecule, the Kd is about 4.8-fold higher.

B20: Ic_S2_P5E.1_K5.1_C5.1_H5.1_A5.1_[T5A]_[T6A]_[A7T]_F5.1_[T8A]_[T9C]_[A10G]_T5.1 (ssRNA)
RNA: B7 RNA with C33A, C34U, G35A, U36C, A37G
In turn, B20 returned a Kd of 52 nM. This Kd lies about 20-fold lower than the previous one.

B21: Ic_S2_P5E.1_K5.1_C5.1_H5.1_A5.1_[T6C]_F5.1_[T8G]_[T9C]_[A10C]_T5.1 (ssRNA)
RNA: B7 RNA with A32U, C34A, U36C, A37C
Consider B21, for which the Kd is 389 nM.

B22: Ic_S2_P5E.1_K5.1_C5.1_H5.1_A5.1_[T6G]_[A7G]_F5.1_[T8C]_[A10C]_T5.1 (ssRNA)
RNA: B7 RNA with A32U, C33G, C34G, G35C, A37C
Take B22: binding was characterised by a dissociation constant (Kd) of 543 nM.

B23: Ic_S2_P5E.1_K5.1_C5.1_H5.1_A5.1_[T6A]_[A7T]_F5.1_[T8C]_[T9G]_[A10G]_T5.1 (ssRNA)
RNA: B7 RNA with A32U, C33A, C34U, G35C, U36G, A37G
In turn, B23 gave a Kd of 49.1 nM. This Kd is about 11-fold lower than that of the molecule before.

B24: Ic_S2_P5E.1_K5.1_C5.1_H5.1_A5.1_[T5C]_[A7C]_F5.1_[A10T]_T5.1 (ssRNA)
RNA: B7 RNA with A32C, C33U, G35U, A37U
In the case of B24, the Kd amounted to 8.52 nM.

B25: Ic_S2_P5E.1_K5.1_C5.1_H5.1_A5.1_[T5A]_[T6C]_[A7C]_F5.1_[T8A]_[T9C]_[A10C]_T5.1 (ssRNA)
RNA: B7 RNA with G35A, U36C, A37C
B25 yielded a Kd of 1060 nM.
